{"source": "patent US20170258835A1", "key": {"[1]": {"target": "EGFRviii (UniProt P00533)"}, "[2]": {"target": "HLA-A2/NY-ESO-1", "assay": "cell-based or functional assay"}, "[3]": {"target": "CD19 (UniProt P15391)", "sequence (P15391 20-556 limits assumed)": "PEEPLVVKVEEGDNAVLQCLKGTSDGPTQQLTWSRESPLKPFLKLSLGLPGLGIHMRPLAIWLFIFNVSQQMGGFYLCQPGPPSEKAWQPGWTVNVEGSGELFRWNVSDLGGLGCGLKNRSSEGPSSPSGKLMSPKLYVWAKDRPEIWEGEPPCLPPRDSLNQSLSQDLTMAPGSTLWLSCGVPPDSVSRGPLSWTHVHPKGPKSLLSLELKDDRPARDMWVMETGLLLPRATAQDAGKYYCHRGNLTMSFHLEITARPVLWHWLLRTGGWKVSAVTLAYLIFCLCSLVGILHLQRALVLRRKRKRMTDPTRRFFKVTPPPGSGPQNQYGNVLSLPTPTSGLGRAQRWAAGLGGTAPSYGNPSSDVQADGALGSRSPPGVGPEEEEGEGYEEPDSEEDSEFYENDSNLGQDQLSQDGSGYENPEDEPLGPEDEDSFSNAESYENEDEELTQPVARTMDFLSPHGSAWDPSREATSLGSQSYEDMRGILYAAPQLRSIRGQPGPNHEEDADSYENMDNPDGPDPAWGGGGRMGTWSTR", "assay": "cell-based or functional assay"}}}
{"substance": "MR1-BBZ", "values": [{"measurement": "CD107a+ share of CD8+ T cells after stimulation with K562-EGFRvIII", "setting": "[1]", "result": 51.8, "unit": "%"}]}
{"substance": "NY-ESO-1 (1G4) TCR alpha and beta", "values": [{"measurement": "CD8/CD107a double positive cells, stimulated with Nalm6-ESO (Affi-epsilon co-electroporated, EP3 to EP6)", "setting": "[2]", "result": "49.5 to 53.3", "unit": "%"}]}
{"substance": "Blinatumomab (secreted by T cells electroporated with Blinatumomab Bis-RNA) (bispecific antibody)", "values": [{"measurement": "CD107a up-regulation, stimulated with K562-CD19", "setting": "[3]", "result": 81, "unit": "%"}, {"measurement": "IFN-gamma ELISA; lowest dose of CD19 mRNA electroporated into K562 that was recognized", "setting": "[3]", "result": 0.001, "unit": "µg"}]}
